Assay [1] concerns the target T1, monomeric SDF-1 (human, UniProt P48061 22-89).
T1 construct: also called monomeric form of SDF-1; SDF-1 at low density on a CM5 chip
Put plainly: SPR (Biacore), low density of SDF-1 covalently attached to CM5 chip, analyte at 10-50 nM. On the technique in general: Surface plasmon resonance follows binding to a sensor surface in real time, without labels.

The target of assay [2] is T2, recombinant human SDF-1α (Peprotech) (human, UniProt P48061 22-89).
T2 construct: Bought protein (Peprotech, cat. 300-28A); also called rh SDF-1α; Stromal cell-Derived Factor-1
Put plainly: SPR (Biacore), antibody amine-coupled to CM5 chip, SDF-1 flowed at 5-40 nM right after dilution to maximize the dimer population, 1:1 Langmuir fit. As for the experimental part:
The antigen-antibody association kinetics was followed for 2 minutes and the dissociation kinetics was followed for 8 minutes. The association and dissociation curves were fit to a 1:1 Langmuir binding model using BIAevaluation software (Biacore AB).

Assay [3] has as its target T1, monomeric SDF-1. In words: SPR (Biacore), low density of SDF-1 covalently attached to CM5 chip, analyte at 100-500 nM.
Assay [4] has as its target T2, recombinant human SDF-1α (Peprotech). Put plainly: cell-based or functional assay.
Assay [5] shares this target. In words: radio-labeled ligand binding assay: the antibody blocks binding of 100 pM 125I-SDF-1 to CEM cells; unit taken from the axis 'Ab in nM'. The text has this:
(§1) An irrelevant antibody with the same isotype was used as a negative control.

Assay [6] has the same target. Put plainly: radio-labeled ligand binding assay: the antibody blocks binding of 100 pM 125I-SDF-1α to HuVEC cells (GAGs, no CXCR4); unit taken from the axis 'Ab conc in nM'.
From the text: as §1

T1 sequence (P48061 22-89 limits assumed): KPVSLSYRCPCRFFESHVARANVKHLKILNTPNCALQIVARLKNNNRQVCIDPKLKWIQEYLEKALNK
T2 sequence (P48061 22-89 limits assumed): as above

B1: 1C6 human monoclonal antibody (antibody, V domains shown)
VH: EVQLVESGRGLVQPGGSLRLSCAASGFTFSSYWMSWVRQAPGKGLEWVANMNQDGSEKYYVDSVKGRFTISRDNAKNSLYLQMNSLRAEDTAVYYCARDLTGPYYYDYYGMDVWGQGTTVTVSS
VL: AIRMTQSPSSVSASVGDRVTITCRASQGISSALAWYQQTPGKAPKLLIYDASSLESGVPSRFSGSGSGTDFTLTISSLQPEDFATYYCQQFNSYPRTFGQGTKVEIK
notes: Whole human monoclonal antibody with kappa light chain (VK L18), from a HuMAb Mouse; also called Z1/C6; mAb Z group antibody
What is called Kd is the equilibrium constant for the complex coming apart. Broadly, the koff is the rate constant with which the complex falls apart. By kon is commonly meant the rate constant with which the complex forms. In assay [1], B1 displayed a Kd of 3.6 nM, a koff of 0.0004 s⁻¹ and a kon of 110000 M⁻¹ s⁻¹. Further, in assay [2], the equilibrium dissociation constant (Kd) came to 0.46 nM, the koff worked out at 0.00064 s⁻¹ and the association rate constant (kon) is 1.4e+06 M⁻¹ s⁻¹.

B2: 1D3 human monoclonal antibody (antibody, V domains shown)
VH: EVQLVQSGAEVKKPGASVKVSCKVSGYTLTKLSVHWVRQAPGKGLEWMGSFDPEDGETIYSQRFQGRVTMTEDTSTDTAYMELTSLRSEDTAVYYCATEGQWLVAYYGMDVWGQGTTVTVSS
VL: EIVLTQSPSSLSASVGDRVTITCRASQGISSALAWYQQKPGKAPKLLIYDASSLESGVPSRFSGSGSGTDFTLTISSLQPEDFATYYCQQFNSYPLTFGGGTKVEIK
notes: Whole human monoclonal antibody with kappa light chain (VK L18), from a KM Mouse; also called B1/D3; mAb B group antibody
As for B2, in assay [3], binding was put at a Kd of 151 nM, the koff came to 0.0017 s⁻¹ and the kon worked out at 11000 M⁻¹ s⁻¹. In assay [2], the Kd was determined as 0.63 nM, the koff is 0.0005 s⁻¹ and the kon worked out at 800000 M⁻¹ s⁻¹.

B3: 1H2 human monoclonal antibody (antibody, V domains shown)
VH: QVQLVQSGAEVKKPGASVKVSCKVSGYTFTKLSVHWVRQAPGKGLEWMGSFDPEDGETIYSQRFQGRVTMTEDTSTDTAYMELSSLRSEDTAVYYCATEGQWLVAYYGMDVWGQGTMVTVSS
VL: EIVLTQSPSSLSASVGDRVTITCRASQGISSALAWYQQKPGKAPKLLIYDASSLESGVPSRFSGSGSGTDFTLTISSLQPEDFATYYCQQFNSYPLTFGGGTKVEIK
notes: Whole human monoclonal antibody with kappa light chain (VK L18), from a KM Mouse; also called B1/H2; B1H2
A word on the EC50: it is the concentration that produces a half-maximal response. As to B3, the “EC50, inhibition of SDF-1α (5 nM)-induced migration of CEM cells (Fluorescent Units)” value in assay [4] came out at 0.498 nM. In assay [3], this molecule came in with a Kd of 176 nM, an off-rate (koff) of 0.0016 s⁻¹ and a kon of 9100 M⁻¹ s⁻¹. Further, in assay [2], the Kd came to 1.32 nM, the koff was determined as 0.00084 s⁻¹ and the kon is 600000 M⁻¹ s⁻¹. Also, in assay [5], the 50% effective concentration (EC50) worked out at 0.117 nM. In addition, in assay [6], the EC50 turned out to be 0.013 nM.

B4: 2A5 human monoclonal antibody (antibody, V domains shown)
VH: QVQLVQSGGGLVQPGGSLRLSCAASGFTFSSYWMSWVRQAPGKGLEWVANMNQDGSEKYYVDSVKGRFTISRDNAKNSLYLQMNSLRAEDTAVYYCARDLTGPYYYDYYGMDVWGQGTTVTVSS
VL: DIQMIQSPSSLSASVGDRVTITCRASQGISSALAWYQQKPGKAPKLLIYDASSLESGVPSRFSGSGSGTDFTLTISSLQPEDFATYYCQQFNSYPRTFGQGTKVEIK
notes: Whole human monoclonal antibody with kappa light chain (VK L18), from a HuMAb Mouse; also called Z2/A5; Z2A5
As for B4, the “EC50, inhibition of SDF-1α (5 nM)-induced migration of CEM cells (Fluorescent Units)” value in assay [4] came out at 0.543 nM. In assay [1], this molecule yielded a Kd of 4.6 nM, a koff of 0.00045 s⁻¹ and an on-rate (kon) of 96000 M⁻¹ s⁻¹. Also, in assay [2], the equilibrium dissociation constant (Kd) came to 0.37 nM, the koff worked out at 0.0011 s⁻¹ and the kon came to 2.9e+06 M⁻¹ s⁻¹. Besides, in assay [5], the EC50 was 0.347 nM. The 50% effective concentration (EC50) in assay [6] was found to be 0.0637 nM.
